# Assay results taken from publication PMC3056768, “Conjugation to the Cell-Penetrating Peptide TAT Potentiates the Photodynamic Effect of Carboxytetramethylrhodamine” (PLoS ONE, 2011).
# Like-named read-outs stand apart in the source and are kept apart here.
# How the values were obtained:
# HeLa cells [1] = assay: Toxicity in the absence of light (SYTOX green / DAPI); assay type: cell-based, human; conditions: concentrations up to 25 µM, 1 h in L-15 at 37°C, washed, additional 4 h, average of 3 experiments
# Method: Supplementary file pone.0017732.s001.tif: Figure S1 Toxicity of TMR-TAT toward HeLa cells in the absence of light. TMR-TAT was incubated at the concentration indicated with cells for 1 hour in L-15 at 37°C. Cells were washed with fresh L-15 and incubated for an additional 4 h. Cells were then treated with L-15 containing DAPI and SYTOX® green. DAPI stains the nucleus of all cells while SYTOX® green only stains the nucleus of dead cells. Cells were imaged by fluorescence microscopy using the DAPI and FITC filters to detect DAPI and SYTOX® green, respectively. For each experiments, five representative images were acquired using the 20× objective and the percentage of dead cells were calculated from the ratio of cells stained by SYTOX® green divided by the number of cells stained by DAPI. The reported data is the average of 3 experiments (3×5 images, ≥1000 cells/experiments) and the error bar represents the standard deviation. (TIF) Click here for additional data file.
# HeLa cells [2] = assay: Photosensitization of extracellular peptide at 4°C (endocytosis blocked); assay type: cell-based, human; conditions: 3 µM, 4°C to block endocytosis, irradiated at 560 nm with compound still in the media
# Method: (§1) HeLa (human cervical adenocarcinoma), COS-7 (SV40 transformed African green monkey kidney fibroblast-like cell line) were obtained from ATCC. COLO 316 (human ovarian carcinoma) were obtained from Robert Burghardt (Department of Veterinary Integrative Biosciences, Texas A&M University). Cells were cultured in DMEM supplemented with 10% fetal bovine serum (FBS) and maintained at 37°C in a humidified environment with 5% CO2. Cells were plated in 8-well dishes so that the cells were 70% confluent after 24 h, washed 3 times with L-15 media, incubated with 3 to 10 µM peptides at 37°C for 1 h, washed 3 times with L-15, and imaged. Alternatively, cells were incubated in L-15 at 4°C to inhibit the endocytic uptake of peptides. In this case, cells were imaged with the peptide still present in solution and the low temperature was maintained for the entire duration of imaging. For photosensitization, cells were exposed to light (λex = 560±20 nm) for the indicated time points. Plasma membrane disruption was detected by addition of the cell-impermeable DNA stain SYTOX Blue (5 µM) during or after photosensitization.
# It is therefore possible that the endosomal release observed in the experiments of Figure 1 might be necessary to cause cell death. To investigate whether this is the case, we examined if light-induced cell-death could be observed when the peptides were only localized at the plasma membrane of cells. For these experiments, HeLa cells were first incubated with the peptides (3 µM) at 4°C to block endocytosis. Cells were then irradiated with the peptides still present in the media (the peptide is not retained at the plasma membrane when cells are washed). […] Cells were then washed and observed by fluorescence imaging. […] On the other hand, the membrane damage and cell death obtained after TMR-TAT photosensitization were also observed when hematoporphyrin (HP) or hematoporphyrin derivative (HPD) were used (Fig. 4B). […]
# HeLa cells [3] = assay: Endocytic uptake (fluorescence of endocytic organelles); assay type: cell-based, human; conditions: 1 h at 37°C, washed, fluorescence imaging (TMR-TAT 3 µM; TMR-K9 higher concentration)
# Method: as §1
# Supplementary file pone.0017732.s003.tif: Figure S3 Comparison of the fluorescence intensity of endosomes containing TMR-TAT (incubation at 3 µM) or TMR-K9 (incubation at 10 µM) in the images presented in Figure 1. Imaging was performed in both cases under identical conditions. The fluorescence intensities of all endocytic organelles was measured the Slidebook software. […] (TIF) Click here for additional data file.
# red blood cells (RBCs) = assay type: cell-based
# Method: Supplementary file pone.0017732.s005.tif: Figure S5 A) Photohemolysis of RBCs with TMR-TAT. Short light exposure tat 560 nm to RBCs incubated with TMR-TAT (3 µM) causes lysis and formation of ghost cells as observed by bright field imaging. Lysis of more than 90% of the cells can be achieved when light exposure is increased. Initially, the ghosts formed appear to have a constant diameter as shown in the images corresponding to exposure at 20 J/cm^2 and 60 J/cm^2. As light exposure is increased, the ghosts shrink to a much smaller diameter (120 J/cm^2 image). This shrinkage was not observed when the ghosts formed by irradiation with 60 J/cm^2 of light were incubated without additional light irradiation (data not shown). […] The RBCs were then spun down at low speed and the supernatant was removed from the pelleted cells. Cells were rapidly washed with cold PBS (4°C) and spun down twice. Images are the bright field and TMR confocal fluorescence images before and after washing of the RBCs. During incubation, the interior of RBCs display a dark contrast when compared to the fluorescent peptide present in solution. After washing the cells, no appreciable TMR fluorescence could be detected. It is important to note that RBCs have a weak autofluorescence signal in the TMR channel. […]
# HeLa cells [4] = assay: Photocytotoxicity of endocytosed peptide after light irradiation (SYTOX Blue staining, membrane blebbing); assay type: cell-based
smiles,measurement,setting,value
CN(C)c1ccc2c(c1)Oc1cc(N(C)C)ccc1C21OC(=O)c2cc(C(=O)NCC(=O)N[C@@H](CCCNC(=N)N)C(=O)N[C@@H](CCCCN)C(=O)N[C@@H](CCCCN)C(=O)N[C@@H](CCCNC(=N)N)C(=O)N[C@@H](CCCNC(=N)N)C(=O)N[C@@H](CCC(N)=O)C(=O)N[C@@H](CCCNC(=N)N)C(=O)N[C@@H](CCCNC(=N)N)C(=O)N[C@@H](CCCNC(=N)N)C(=O)NCC(N)=O)ccc21 [TMR-TAT],cytotoxicity in the absence of light,HeLa cells [1],negligible
same,light-induced cell death with peptide only extracellular,HeLa cells [2],"dramatic cytoplasmic extrusion, membrane blebbing, shrinkage and cell death"
same,endocytic uptake by cells,HeLa cells [3],punctate intracellular distribution
same,penetration into RBCs,"red blood cells (RBCs); 10 µM in PBS for 1 hour, washed with cold PBS, confocal fluorescence",does not penetrate RBCs to a large extent
same,penetration into RBCs,red blood cells (RBCs); 1 to 5 µM,do not penetrate RBCs
same,cell destruction after irradiation at 430 nm,"HeLa cells [4]; HeLa incubated with TMR-TAT, 430 nm (not absorbed by TMR), radiant exposure approx. 40 J/cm^2",not destroyed
same,cell death on exposure to light of wavelengths not absorbed by TMR,"HeLa cells [4]; HeLa, e.g. 436 or 470 nm",no cell death
